We go through two molecules from article PMC4336547 (Cellular and molecular life sciences : CMLS, 2011).

The data set “FRET or BRET” concerns the molecule itself. The experiment in a line: FRET or BRET.
Data set [1] has as its target T1, murine claudin-3 wild type, untagged (Cld3wt) (mouse), Q9Z0G9.
T1 chain: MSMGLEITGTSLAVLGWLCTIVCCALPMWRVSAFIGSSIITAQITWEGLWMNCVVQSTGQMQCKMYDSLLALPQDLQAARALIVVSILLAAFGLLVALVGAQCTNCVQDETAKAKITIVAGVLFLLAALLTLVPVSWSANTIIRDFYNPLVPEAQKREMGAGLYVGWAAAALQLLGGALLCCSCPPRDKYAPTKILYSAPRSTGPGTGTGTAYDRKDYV
The experiment in a line: contact enrichment. The conditions noted are these: remark: other sources report otherwise.

B1: mouse claudin-5 wild type, CFP or YFP fusion (Cld5wt-CFP / Cld5wt-YFP) (natural protein, UniProt O54942 1-218, looked up)
chain: MGSAALEILGLVLCLVGWVGLILACGLPMWQVTAFLDHNIVTAQTTWKGLWMSCVVQSTGHMQCKVYESVLALSAEVQAARALTVGAVLLALVALFVTLTGAQCTTCVAPGPVKARVALTGGALYAVCGLLALVPLCWFANIVVREFYDPTVPVSQKYELGAALYIGWAASALLMCGGGLVCCGAWVCTGRPEFSFPVKYSAPRRPTANGDYDKKNYV
With B1, the “mean FRET efficiency against the negative control Cld5/CRFR1” value in the data set “FRET or BRET” is 10 fold.

B2: murine claudin-3 wild type, untagged (Cld3wt), Q9Z0G9 1-219 (natural protein)
chain: T1 chain
For B2, in data set [1], the percentage of contacts with EF > 1.5 (PE) is 91%.
